Like-named read-outs stand apart in the source and are kept apart here.
T1: human NT5E expressed on MDA-MB-231 cells (human, UniProt P21589 27-549)
T1 construct: whole, on cells; also called NT5E-expressing MDA-MB-231 cells; CD73
T1 sequence (looked up): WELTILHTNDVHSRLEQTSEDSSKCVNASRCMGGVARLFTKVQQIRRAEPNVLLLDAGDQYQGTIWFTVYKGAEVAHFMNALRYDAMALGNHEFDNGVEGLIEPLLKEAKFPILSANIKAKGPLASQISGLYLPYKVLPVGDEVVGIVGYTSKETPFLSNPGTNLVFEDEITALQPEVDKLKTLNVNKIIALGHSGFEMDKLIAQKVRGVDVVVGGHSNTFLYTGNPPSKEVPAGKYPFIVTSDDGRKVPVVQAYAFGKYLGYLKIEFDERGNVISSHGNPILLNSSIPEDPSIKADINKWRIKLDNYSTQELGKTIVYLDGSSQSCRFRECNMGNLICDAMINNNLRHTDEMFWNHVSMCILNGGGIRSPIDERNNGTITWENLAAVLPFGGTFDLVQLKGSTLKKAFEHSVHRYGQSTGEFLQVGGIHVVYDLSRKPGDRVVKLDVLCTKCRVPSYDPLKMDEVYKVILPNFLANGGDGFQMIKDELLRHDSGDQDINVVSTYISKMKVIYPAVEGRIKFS

T2: Full-length murine NT5E (recombinant) (murine, UniProt Q61503 29-552)
T2 construct: also called mNT5E
T2 sequence: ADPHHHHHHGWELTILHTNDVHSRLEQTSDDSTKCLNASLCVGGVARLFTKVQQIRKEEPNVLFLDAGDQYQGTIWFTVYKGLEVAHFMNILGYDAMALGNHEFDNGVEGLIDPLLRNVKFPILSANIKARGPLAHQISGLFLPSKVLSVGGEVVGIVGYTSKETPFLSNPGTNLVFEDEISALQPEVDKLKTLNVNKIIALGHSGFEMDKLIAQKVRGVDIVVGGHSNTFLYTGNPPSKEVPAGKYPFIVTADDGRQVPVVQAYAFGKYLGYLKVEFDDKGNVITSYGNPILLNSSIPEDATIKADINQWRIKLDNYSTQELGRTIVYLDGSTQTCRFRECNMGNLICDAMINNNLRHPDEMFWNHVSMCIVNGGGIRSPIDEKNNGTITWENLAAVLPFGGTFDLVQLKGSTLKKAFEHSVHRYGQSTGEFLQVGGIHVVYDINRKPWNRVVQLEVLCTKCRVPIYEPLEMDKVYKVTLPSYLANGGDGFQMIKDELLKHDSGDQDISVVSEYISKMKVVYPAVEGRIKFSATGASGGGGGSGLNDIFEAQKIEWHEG

B1: 1789 Fab (Fab, V domains shown)
VH: EVQLVESGGGLVQPGGSLRLSCAASGFNVSYSSIHWVRQAPGKGLEWVASISSSSGYTYYADSVKGRFTISADTSKNTAYLQMNSLRAEDTAVYYCARNYWGWYPFYYFAFDYWGQGTLVTV
VL: DIQMTQSPSSLSASVGDRVTITCRASQSVSSAVAWYQQKPGKAPKLLIYSASSLYSGVPSRFSGSRSGTDFTLTISSLQPEDFATYYCQQGWDYPITFGQGTKVEIKR
B2: 1789 IgG (antibody, V domains shown)
VH: EVQLVESGGGLVQPGGSLRLSCAASGFNVSYSSIHWVRQAPGKGLEWVASISSSSGYTYYADSVKGRFTISADTSKNTAYLQMNSLRAEDTAVYYCARNYWGWYPFYYFAFDYWGQGTLVTVSS
VL: B1 VL

How the values were obtained:
[1] = biological target: T1, human NT5E expressed on MDA-MB-231 cells; assay: flow cytometry on MDA-MB-231 cells, 1 mM ATP
Description: (§1) Flow cytometry analysis of antibodies binding to human NT5E expressed on MDA-MB-231 cells in ATP-free condition (black) or in 1 mM ATP (red). Top panel: (left) 1780 Fab and (right) 1780 IgG titrations. […] Binding was measured at the indicated range of antibody concentrations and is expressed as mean±st. dev of median fluorescence intensity (MFI) of 1-2 replicates. Data were analyzed using OriginLab, and EC₅₀ values are shown next to the fitted curves.
(§2) Human MDA-MB-231 cells and murine 4T1 cells were grown to 90% confluency, detached with 5 mM EDTA for 15 min at 37° C. and then resuspended in 37° C. lx PBS (#10010031, Gibco) supplemented with 1% FBS and 1OpM ZnCl2. Separate working buffers (WB) of PBS and 1% FBS with or without fixed nucleotide concentrations were used throughout all washing steps to maintain constant condition. In 96-well plates (#3799, Costar), 0.2×10⁶ cells were added per well. The plates were spun at 500×g for 5 min and the supernatant was removed. Anti-NT5E antibodies were diluted to the desired concentration in 100 μL WB, added to the cells and the plates were incubated for 20 min at 37° C. Plates were spun and cells were washed twice with WB then spun a second time. Cells were stained with 100 μL of secondary antibody (Alexa Fluor 647 AffiniPure Goat Anti-Human IgG, F(ab′)2 fragment specific, #109-605-006, Jackson, 1:200) dilution and plates were incubated for 20 min at 37° C. Cells were washed twice with WB then fixed on ice with WB supplemented with 0.5% PFA. Fixing solution was removed by centrifugation and cells were resuspended in cold 1× PBS. Samples were analyzed by flow cytometry using CytoFLEX (Beckman Coulter) and mean fluorescence intensity (MFI) data was extracted using FlowJo software. Resulting binding data was plotted using OriginLab.

[2] = biological target: T1, human NT5E expressed on MDA-MB-231 cells; assay: flow cytometry on MDA-MB-231 cells, 1 mM ATP; remark: listed apart in the source
Description: as §1, §2

[3] = biological target: hNT5EDF (substrate binding knock-out variant of hNT5E) (human); assay: DSF thermal shift, 1.5-fold molar excess of Fab, 1 mM ATP (hNT5EDF alone 46° C.)
Description: With 1 mM ATP alone (red dashed line), the TM shifts from one transition at 49° C. to two transitions at TM 59° C. and 64° C. […] Thermal shift assays of substrate binding knock-out variants hNT5EDF (FIG. 2B) and hNT5EFF (FIG. 2C) show no change in thermal stability with the addition of ATP.
Thermal stability of samples was analyzed by differential scanning fluorimetry (DSF) using a real-time PCR instrument (Bio-Rad CFX384). Protein samples were mixed with 4× Sypro Orange at a final 4 μM concentration. For target/Fab complexes, 1.5-fold molar excess of Fab was used. All reactions were performed in triplicates in a 384-well plate. Thermal melting curves were monitored from 25° C. to 95° C. in steps of 0.5° C./30 s. Wavelengths of 490 and 575 nm were used for excitation and emission, respectively. The melting temperatures were inferred from the first derivative of the melting curves from the mean of triplicate runs using CFX software provided by the manufacturer.

[4] = biological target: T2, Full-length murine NT5E (recombinant); assay: ELISA, biotinylated NT5E on neutravidin plate, 1 mM ATP
Description: (B) Protein ELISA: Protein-based multipoint ELISA was performed to estimate the affinity of the generated Fabs and IgGs to NT5E. The binding of the Fabs and IgGs to the closed form of NT5E were determined in ELISA buffer (HBST) supplemented with 10 μM zinc chloride and 1 mM ATP while the binding of the same to open form of NT5E were determined in ELISA buffer (HBST) without any cofactors. A fixed concentration of the immobilized target (50 nM) on ELISA plate was incubated with 3-fold serial dilutions of the purified Fabs and IgGs starting from 3 μM and 1 μM respectively for 15 min. The plates were washed and were subsequently incubated with a secondary HRP-conjugated anti-protein L monoclonal antibody (#32420, ThermoFisher, 1:6000 dilution). As with phage ELISA, the plates were again washed, developed with TMB substrate and quenched with 1.0 M HCl, and absorbance (Abs450) was determined. To determine the affinity (EC50), the data were fitted with a non-linear, 4-parameter logistic curve in OriginLab.

| Binder | EC50 [1] [nM] | EC50 [2] [nM] | TM of NT5E in the presence of the Fab [3] [° C.] | EC50 [4] [nM] |
| --- | --- | --- | --- | --- |
| B1 | 52 | 53 | 46 |  |
| B2 |  | 9.4 |  | 1.14 |
